Measured values published in paper PMC10397247.

What was measured:
Assay in all cases: two-hybrid library CCmax;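 note: natural log of median RNA to DNA barcode read ratio; higher means stronger binding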
[1] = biological target: T1, 4H452-AA; conditions: mean of both orientations
T1 chain: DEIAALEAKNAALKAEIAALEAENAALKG

[2] = biological target: T2, 4H2165-AA; conditions: mean of both orientations
T2 chain: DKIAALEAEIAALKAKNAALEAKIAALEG

[3] = biological target: T3, 4H2343-AA; conditions: mean of both orientations
T3 chain: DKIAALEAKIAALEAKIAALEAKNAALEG

[4] = biological target: T4, 4H3015-AA; conditions: mean of both orientations
T4 chain: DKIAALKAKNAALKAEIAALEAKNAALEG

[5] = biological target: T5, 4H406-AA; conditions: mean of both orientations
T5 chain: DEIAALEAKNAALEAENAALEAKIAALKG

[6] = biological target: T6, 4H3001-AA; conditions: mean of both orientations
T6 chain: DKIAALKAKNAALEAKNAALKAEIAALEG

[7] = biological target: T7, 4H2124-AA; conditions: mean of both orientations
T7 chain: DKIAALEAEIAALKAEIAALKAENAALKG

[8] = biological target: T8, 4H1930-AA
T8 chain: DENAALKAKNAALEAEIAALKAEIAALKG

[9] = biological target: T9, 4H2512-AA
T9 chain: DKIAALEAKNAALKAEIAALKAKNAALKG

[10] = biological target: T10, 4H2253-AA; conditions: mean of both orientations
T10 chain: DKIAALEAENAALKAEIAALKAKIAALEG

[11] = biological target: T11, 4H56-AA; conditions: mean of both orientations
T11 chain: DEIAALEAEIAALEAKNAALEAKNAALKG

[12] = biological target: T12, 4H2592-AA; conditions: mean of both orientations
T12 chain: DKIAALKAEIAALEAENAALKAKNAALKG

[13] = biological target: T13, 4H2931-AA; conditions: mean of both orientations
T13 chain: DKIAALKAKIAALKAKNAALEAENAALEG

[14] = biological target: T14, 4H2774-AA; conditions: mean of both orientations
T14 chain: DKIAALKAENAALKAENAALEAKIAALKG

[15] = biological target: T15, 4H_BCR; conditions: mean of both orientations
T15 chain: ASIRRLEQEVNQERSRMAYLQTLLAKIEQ

[16] = biological target: T16, 4H_APH
T16 chain: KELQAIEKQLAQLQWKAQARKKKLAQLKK

[17] = biological target: 4H_GCN4
[18] = biological target: T17, 4H249-AA; conditions: mean of both orientations
T17 chain: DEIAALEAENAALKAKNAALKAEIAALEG

[19] = biological target: T18, 4H2466-AA; conditions: mean of both orientations
T18 chain: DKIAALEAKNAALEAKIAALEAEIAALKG

[20] = biological target: T19, 4H347-AA; conditions: mean of both orientations
T19 chain: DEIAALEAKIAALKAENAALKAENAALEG

[21] = biological target: T20, 4H3438-AA; conditions: mean of both orientations
T20 chain: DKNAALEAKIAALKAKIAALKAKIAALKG

[22] = biological target: T21, 4H3073-AA; conditions: mean of both orientations
T21 chain: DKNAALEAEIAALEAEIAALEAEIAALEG

[23] = biological target: GCN2_T
[24] = biological target: T22, 4H2330-AA; conditions: mean of both orientations
T22 chain: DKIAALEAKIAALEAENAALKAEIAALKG

[25] = biological target: T23, 4H2732-AA; conditions: mean of both orientations
T23 chain: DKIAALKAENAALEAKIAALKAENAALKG

4H_GCN4, sequence (chain, as listed by the source): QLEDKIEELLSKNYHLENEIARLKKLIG

DENAALKAKNAALEAEIAALKAEIAALKG [4H1930-AA] showed an interaction score [1] of -1.51, an interaction score [2] of -1.35 and an interaction score [3] of -1.34. It also gave an interaction score [4] of -1.72, an interaction score [5] of -1.92 and an interaction score [6] of -1.62. For the same binder, the interaction score [7] was -1.14, the interaction score [8] was 1.78 and the interaction score [9] was -3.66. It also gave an interaction score [10] of -1.35, an interaction score [11] of -2.31 and an interaction score [12] of -1.46. For the same binder, the interaction score [13] was -1.91, the interaction score [14] was -1.57 and the interaction score [15] was -1.93. For the same binder, the interaction score [16] was -1.06, the interaction score [17] was -1.23 and the interaction score [18] was -1.82. It also gave an interaction score [19] of -1.3, an interaction score [20] of -1.32 and an interaction score [21] of -1.3. It also gave an interaction score [22] of -0.77, an interaction score [23] of -1.22 and an interaction score [24] of -1.7. For the same binder, the interaction score [25] was -1.87.
